This is an account of results in patent US20200155571A1, “Topically Active Steroids for Use in Radiation and Chemotherapeutics Injury” (Soligenix, Inc., priority 2008, published 2020).

The conditions of data set [1]: rats, cited from earlier work.
For data set [2] the following is noted: cited from earlier work.
The conditions of data set [3]: 17-BMP after BDP administration, estimated; cited from earlier work.
In a further data set the target is T1, glucocorticoid receptor (Homo sapiens, UniProt P04150).
T1 sequence (P04150 1-777): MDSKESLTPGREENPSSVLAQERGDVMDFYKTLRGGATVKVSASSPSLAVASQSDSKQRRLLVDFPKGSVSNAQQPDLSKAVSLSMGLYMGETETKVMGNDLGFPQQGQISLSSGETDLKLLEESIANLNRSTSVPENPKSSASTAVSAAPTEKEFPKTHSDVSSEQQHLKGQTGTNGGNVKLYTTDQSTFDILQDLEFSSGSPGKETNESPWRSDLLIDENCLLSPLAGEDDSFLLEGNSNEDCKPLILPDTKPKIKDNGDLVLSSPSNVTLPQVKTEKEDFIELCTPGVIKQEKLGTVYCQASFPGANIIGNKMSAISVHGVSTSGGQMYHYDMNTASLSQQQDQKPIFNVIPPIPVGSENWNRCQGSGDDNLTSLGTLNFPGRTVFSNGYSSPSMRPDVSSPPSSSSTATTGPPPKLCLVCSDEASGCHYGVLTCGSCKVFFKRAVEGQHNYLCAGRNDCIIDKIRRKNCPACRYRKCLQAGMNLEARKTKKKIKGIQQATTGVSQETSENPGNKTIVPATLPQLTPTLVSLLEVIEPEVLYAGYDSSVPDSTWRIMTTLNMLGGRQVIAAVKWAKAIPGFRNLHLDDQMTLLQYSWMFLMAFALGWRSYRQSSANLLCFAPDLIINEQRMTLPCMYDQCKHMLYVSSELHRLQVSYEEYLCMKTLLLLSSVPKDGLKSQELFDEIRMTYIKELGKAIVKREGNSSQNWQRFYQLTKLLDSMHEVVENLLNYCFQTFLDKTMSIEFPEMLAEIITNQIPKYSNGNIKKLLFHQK
The settings on record: as fraction of the binding affinity of dexamethasone; cited from earlier work.

Data set [4] relates to dogs given high dose total body irradiation (TBI). In words: Survival of dogs after high dose TBI (GI radiation syndrome) with autologous marrow and supportive care. Type of data set: in vivo, dog. The conditions noted are these: TBI dose giving >80% lethality; monitored up to 30 days; KGF 100 μg/kg/day iv or BDP 4 mg/day from 2 hours after TBI until GI recovery. The source says:
The dog is a particularly suitable animal model for studying radiations damage to epithelial tissue. […] To evaluate the response to TBI given at the high dose rate of 0.4 Gy/min or 0.7 Gy/min, treatment groups were given single-fraction 6, 7, 8 or 10 Gy TBI and received previously cryopreserved autologous marrow infusion upon completion of the TBI and standard supportive care. At doses of TBI below 8 Gy, all dogs survived. After 8 Gy TBI, 5 of 9 dogs died and after 10 Gy TBI, 9 of 9 dogs died from GI radiation syndrome. All deaths occurred between days 4 to day 6 after 10 Gy TBI. All deaths were attributable due to GI radiation toxicity with severe gut hemorrhage and intestinal crypt damage, as well as denudation of gut epithelium and focal necrosis in the intestines. Despite antibiotic treatment, blood cultures obtained near the time of death were positive for gram negative organisms in 4 dogs, consistent with entry of pathogens through the GI tract. […]
Dogs were monitored for survival up to 30 days after initiation of TBI (primary endpoint of the experiment). […] Dogs were also followed with daily CBCs until recovery and assessed for immune function recovery. […]

Data set [5] relates to oral mucositis after high-dose radiation. The settings on record: cited from earlier work.
Another data set relates to non-irradiated dogs. Nature of the data set: rhKGF in non-irradiated dogs, necropsy of gut. Type of data set: in vivo, dog. The settings on record: rhKGF 100 μg/kg/day for 14 and 21 days. As to the method:
Three non-irradiated dogs were given rhKGF 100 μg/kg/day for 7, 14 and 21 days, respectively. Twenty-four hours after the last dose of KGF, dogs were euthanized and underwent complete necropsy.

Data set [6] has as its system dogs given total body irradiation (TBI). Nature of the data set: Survival and hematopoietic recovery of dogs after TBI with cytokine treatment. Format: in vivo, dog. As to the method: Supportive care consisted of the following: (a) intravenous antibiotics, ampicillin and amikacin and oral nonreabsorbable polymixin/neomycin administered without change in drug regimen until recovery of absolute neutrophil count (ANC)>1000/μL; (b) transfusions with irradiated whole blood (50 mL blood per transfusion) for platelet counts below 10,000/μL; and (c) subcutaneous fluids 20 ml/kg given daily for the first 5 days after TBI.
After TBI exposure, all dogs were treated with an oral fluoroquinolone, enrofloxacin. Core body temperature was measured at least twice daily. If fever developed or when ANC falls below <100/μL, dogs are empirically treated with the combination of intravenous third-generation cephalosporin (ceftazidime) and the aminoglycoside amikacin. Blood cultures are obtained when dogs develop fever and antibiotic treatment is adjusted based on blood culture results. If blood culture negative neutropenic fever persists for 48 hours, or if clinical condition objectively worsens, additional empiric antibiotic treatment with metronidazole and vancomycin is added. Although the new antibiotic regimen is more complicated compared with the historical treatment, it reflects improved broad spectrum coverage against gram negative, gram positive and anaerobic pathogens. Furthermore, blood transfusion support is more intensive now with larger volume of whole blood transfusion, based on body weight with 10-15 mL blood/kg/transfusion. The use of intravenous fluid support (10-30 mL/kg/day Lactated Ringers solution) is extended for at least 14 additional days until there is full recovery of oral food intake.
New supportive care measures have shown a significant improvement in survival after TBI. Following 4 Gy TBI (0.07 Gy/min, Varian Clinac 4/80 linear accelerator source), 4 of 4 dogs survived and recovered hematopoiesis with a median time to ANC and platelet recovery of 27 and 41 days, respectively. ANC recovery was defined as the first day of sustained neutrophil counts >500/μL and platelet recovery was defined as the first day of transfusion-independent sustained recovery of >40,000/μL. After 5 Gy TBI, 3 of 6 dogs survived with supportive care only. Deaths occurred at days 14, 15 and 21, respectively, after TBI and were due to neutropenic sepsis or pneumonia and not from the GI radiation syndrome. Among surviving dogs, the median time to ANC and platelet recovery was 29 and 44 days, respectively. After 6 Gy TBI, 5 of 6 dogs survived given supportive care only. One death occurred on day 22 due to neutropenic sepsis. The median time to ANC and platelet recovery was 34 and 74 days, respectively. After 7 Gy TBI and supportive care only, 5 of 6 dogs survived, with one death on day 22 due to neutropenic sepsis. […] As of Apr. 18, 2007, the remaining three dogs in this cohort remain transfusion-dependent at 66 to 95 days after TBI. […] Because of the improved survival of dogs after TBI given optimal supportive care in the current AI-066498 studies, we have not yet reached the 99% lethal dose of TBI threshold.
Although supportive care without cytokine support results in improved survival, cytokine treatment given after TBI aimed at recovery of the hematopoietic system also improves outcome and decreased the need for prolonged, intensive (and expensive) supportive care. Historical results in the dog model by our research group included studies which established that both recombinant canine (rc) and recombinant human (rh) G-CSF given after an otherwise lethal dose of 4 Gy TBI prevented death from radiation induced cytopenia. In the 1980's and early 1990's, after 4 Gy TBI and supportive care alone, only 1 of 28 dogs survived with recovery of hematopoiesis. In contrast, when G-CSF was given daily for 21 days after 4 Gy TBI, 8 of 10 dogs survived. […] These studies helped to establish the current clinical guidelines for the treatment of victims of radiation accidents. […]

As for `CCC(=O)O[C@]1(C(=O)CO)[C@@H](C)C[C@H]2[C@@H]3CCC4=CC(=O)C=C[C@]4(C)[C@@]3(Cl)[C@@H](O)C[C@@]21C` [17-BMP, 17-beclomethasone mono-propionate], the “presence in plasma following oral administration of 3H-BDP” value in data set [1] is reported as “found in the plasma”. Further, the “half-life in simulated intestinal fluid” value in data set [2] is 720 min. The absolute oral bioavailability in data set [3] is 21-41%.

`CCC(=O)OCC(=O)[C@@]1(O)[C@@H](C)C[C@H]2[C@@H]3CCC4=CC(=O)C=C[C@]4(C)[C@@]3(Cl)[C@@H](O)C[C@@]21C` [21-BMP]: the “glucocorticoid receptor binding affinity, in words” value at glucocorticoid receptor was “no apparent affinity”.

Consider beclomethasone 17,21-dipropionate [BDP], for which, in data set [1] (intravenous administration of 3H-BDP), the “half-life of unchanged BDP in plasma” value is 3 to 4 min. Moreover, in data set [1], the “presence in plasma following oral administration of 3H-BDP” value is listed as “not detected”. In addition, the “survival after TBI” value in data set [4] is “greater than 70%”. Also, in data set [2], the “half-life in simulated intestinal fluid” value is 2.1 min.

B1: KGF: keratinocyte growth factor, recombinant human; binds the KGF receptor on epithelial tissues (protein, UniProt P21781 32-194, looked up)
Fibroblast growth factor 7: CNDMTPEQMATNVNCSSPERHTRSYDYMEGGDIRVRRLFCRTQWYLRIDKRGKVKGTQEMKNNYNIMEIRTVAVGIVAIKGVESEFYLAMNKEGKLYAKKECNEDCNFKELILENHYNTYASAKWTHNGGEMFVALNQKGIPVRGKKTKKEQKTAHFLPMAIT
Consider B1, for which, in data set [5] (rhKGF 60 μg/kg/day for 3 days prior to 12 Gy fractionated TBI and 3 days after autologous PBSC infusion, placebo 10.4 days, p<0.001), the duration of mucositis was 3.4 days. Moreover, the “incidence of febrile neutropenia” value in data set [5] (same trial, placebo 46%) is given as 26%. Besides, in data set [5] (same trial, placebo 4.6 days), the “mean days of febrile neutropenia” value was 2.6 days. Besides, the “survival after TBI” value in data set [4] is on record as not below 70%. In the data set on non-irradiated dogs, the “effect on Peyer's patches in the ileum” value is “dramatic increase in the size and cellularity of Peyer's patches”; the “effect on villi in the jejunum” value is reported as “dramatic increase in size of villi”.

B2: G-CSF: cytokine granulocyte colony stimulating factor, recombinant canine or human (protein, UniProt P09919 31-207, looked up)
Granulocyte …: TPLGPASSLPQSFLLKCLEQVRKIQGDGAALQEKLVSECATYKLCHPEELVLLGHSLGIPWAPLSSCPSQALQLAGCLSQLHSGLFLYQGLLQALEGISPELGPTLDTLQLDVADFATTIWQQMEELGMAPALQPTQGAMPAFASAFQRRAGGVLVASHLQSFLEVSYRVLRHLAQP
With B2, the survival in data set [6] (4 Gy TBI, G-CSF daily for 21 days, historical results, supportive care alone 1 of 28) was 8 of 10; in data set [6] (5 Gy TBI, 10 μg/kg/day starting 2 hours after irradiation, new supportive care), 6 of 6; in data set [6] (5 Gy TBI, G-CSF, historical results), 3 of 10; in data set [6] (6 Gy TBI, G-CSF 10 μg/kg/day, FL 100 μg/kg/day), 5 of 6. In addition, the “median time to ANC recovery” value in data set [6] (5 Gy TBI, ANC >500/μL) is listed as 20 days; in data set [6] (6 Gy TBI), 26 days. Moreover, the “median time to platelet recovery” value is 44 days in data set [6] (5 Gy TBI, platelets >40,000/μL) and 61 days in data set [6] (6 Gy TBI).
